We go through three molecules from article PMC8927147, “Global profiling of regulatory elements in the histone benzoylation pathway” (Nature Communications, 2022).

Substitutions are numbered along the chain they refer to. Names may count otherwise.

One assay has as its target T1, H3K27bz peptide.
T1 chain: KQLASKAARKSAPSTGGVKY
Nature of the assay: ITC. Particulars: chain shown with the change.

For another assay, the target named is T2, H3K14bz peptide.
T2 chain: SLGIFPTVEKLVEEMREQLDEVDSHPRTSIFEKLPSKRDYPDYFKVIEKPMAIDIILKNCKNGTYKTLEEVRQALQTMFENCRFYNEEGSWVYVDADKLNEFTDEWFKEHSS
Put plainly: ITC. Particulars: chain shown with the change.

B1: Sas5_(YEATS), Q99314 K64P (protein)
chain: DHSIEVTFRVKTQQVIIPEQNIRGNELPLRRWQMELLMLDATGKEVEPTILSKCIYHLHSSFPQPKRRLNSLPFFIKETGWGEFNLKIECFFIGNAGKFSIEHDLTFEDDAYAVDYTVDVPHEFSHLNSELSKYFDLP
B1: in the assay with H3K27bz peptide, the dissociation constant Kd is 31.1 µM.

B2: Sas5_(YEATS), Q99314 L30H (protein)
chain: B1 chain with L29H, P63K
On to B2, for which the Kd with H3K27bz peptide worked out at 369 µM.

Turning to TARKSTGGKAPRKQLASY [Sth1BD, P32597 A1329C], the dissociation constant (Kd) in the assay with H3K14bz peptide is 187 µM.
